The source of these data is article PMC9675739, “Structural and functional asymmetry of RING trimerization controls priming and extension events in TRIM5α autoubiquitylation” (Nature Communications, 2022).

The data set concerns the molecule itself. The data set is described as follows: AUC; sedimentation equilibrium at different protein concentrations and rotor speeds, 20 °C, global fit to a monomer-dimer self-association model; dimer to monomers.

B1: R1-WT, isolated RING domain of rhesus TRIM5α (domain or fragment, rhesus monkey, UniProt Q0PF16 2-90, looked up)
chain: ASGILLNVKEEVTCPICLELLTEPLSLHCGHSFCQACITANHKKSMLYKEGERSCPVCRISYQPENIQPNRHVANIVEKLREVKLSPEE
notes: TRIM5α RING domain, rhesus monkey, residues 2-90 (methods); the results give residues 2-89; Tags removed by TEV protease; 15N-labelled for NMR; also called RING monomer; isolated RING monomer; source: bacteria, purified (Ni-NTA, Superdex 75); not shown: His6, N-terminal, cleaved; GB1, N-terminal, cleaved
As usually defined, the Kd is the concentration at which binding is half-saturated. A lower Kd goes with a tighter complex. For B1, binding was put at a Kd of 63 ± 28 µM.
